Laboratory results as given in US20230338477A1 (published 2023).

target: T1, human transferrin receptor 1 (hTfR) (human, UniProt P02786 89-760, limits assumed); test: in vitro binding screen, method not described
T1 construct: also called TFRC; transferrin receptor protein 1
T1 sequence (P02786 89-760 limits assumed): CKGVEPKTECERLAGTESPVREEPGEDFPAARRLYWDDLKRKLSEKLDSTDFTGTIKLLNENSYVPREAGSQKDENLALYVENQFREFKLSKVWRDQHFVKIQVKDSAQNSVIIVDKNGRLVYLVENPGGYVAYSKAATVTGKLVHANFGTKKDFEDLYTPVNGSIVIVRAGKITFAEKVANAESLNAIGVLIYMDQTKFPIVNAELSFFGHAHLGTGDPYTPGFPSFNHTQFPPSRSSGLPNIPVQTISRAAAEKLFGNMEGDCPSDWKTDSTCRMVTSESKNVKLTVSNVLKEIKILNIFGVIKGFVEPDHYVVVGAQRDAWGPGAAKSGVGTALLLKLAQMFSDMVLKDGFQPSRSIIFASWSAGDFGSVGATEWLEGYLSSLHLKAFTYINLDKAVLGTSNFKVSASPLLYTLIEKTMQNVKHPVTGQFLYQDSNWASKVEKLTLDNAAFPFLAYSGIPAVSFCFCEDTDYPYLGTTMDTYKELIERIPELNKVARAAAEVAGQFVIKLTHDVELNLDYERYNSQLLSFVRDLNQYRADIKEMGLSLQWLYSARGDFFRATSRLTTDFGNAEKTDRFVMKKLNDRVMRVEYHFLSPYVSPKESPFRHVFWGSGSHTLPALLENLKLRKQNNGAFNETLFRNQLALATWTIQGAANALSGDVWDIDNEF

binding result	Binder
binds	69332 (antibody, V domains shown, Anti-hTfR antibody of the initial screen; only variable domains are tied to it) VH: QVTLRESGPALVKPSQTLTLTCTFSGFSLNTYGMFVSWIRQPPGKALEWLAHIHWDDDKYYSTSLKTRLTISKDTSKNQVVLTMTNMDPVDTATYYCARGHNNLNYIIHWGQGTLVTVSS VL: AIQMTQSPSSLSASVGDRVTITCRASQGIRNDLGWYQQKPGKAPKLLIYAASTLQSGVPSRFSGSGSGTDFTLTISSLQPEDFATYYCLQDYNYPFTFGPGTKVDIK
binds	69331 (antibody, V domains shown, Anti-hTfR antibody of the initial screen; only variable domains are tied to it) VH: QVQLVESGGGVVQPGRSLRLSCIASGFTFSVYGIHWVRQAPGKGLEWMAVISHDGNIKHYADSVKGRFTISRDNSKNTLYLQINSLRTEDTAVYYCAKDTWNSLDTFDIWGQGTMVTVSS VL: DIQLTQSPSSLSASVGDRVTITCWASQGISSYLAWYQQKPGKAPKLLIYAASTLQSGVPSRFSGSGSGTEFTLTISSLQPEDFATYYCQQLNSYPLTFGGGTKVEIK
binds	69340 (antibody, V domains shown, Anti-hTfR antibody of the initial screen; only variable domains are tied to it) VH: EVQLVESGGGLVQPGRSLRLSCAASGFTFDDKAMHWVRQVPGKGLEWISGISWNSGTIGYADSVKGRFIISRDNAKNSLYLQMNSLRAEDTALYYCAKDGDTSGWYWYGLDVWGQGTTVTVSS VL: EIVLTQSPATLSLSPGERATLSCRASQSVSSYLAWYQQKPGQAPRLLIHDVSNRATGIPARFSGSGSGTDFTLTISSLEPEDFVVYYCQQRSDWPITFGQGTRLEIK
binds	69348 (antibody, V domains shown, Anti-hTfR antibody of the initial screen; only variable domains are tied to it) VH: QVQLVESGGGVVQPGRSLRLSCAASGFTFTTYGMHWVRQAPGKGLEWVAVIWYDGSNKYYGDSVKGRFTISRDNSKNTLYLQMNSLRVDDTAVYYCTRTHGYTRSSDGFDYWGQGTLVTVSS VL: DIQMTQSPSSLSASVGDRVTITCRASQSIRNVLGWFQQKPGKAPQRLIYAASSLQSGVPSRFSGSGSGTEFTLTISSLQPEDFATYYCLQHNFYPLTFGGGTKVEIK
binds	69326 (antibody, V domains shown, Anti-hTfR antibody of the initial screen; only variable domains are tied to it) VH: EVQLVESGGGLVQPGGSLRLSCAVSGFIFSSYEMNWVRQAPGKGLEWVSYISSSGSTIFYADSVKGRFTISRDNAKNSLYLQMNSLRAEDTAVYYCVSGVVLFDVWGQGTMVTVSS VL: EIVMTQSPATLSVSPGERATLSCRASQSVSSNFAWYQQKPGQAPRLLIYSASSRATGIPVRFSGSGSGTEFTLTISSLQSEDFAVYYCQQYNIWPRTFGQGTKVEIK
